Experimental findings from paper PMC8863788, “A multiparametric fluorescence assay for screening aptamer–protein interactions based on microbeads” are described below.

What all share (assay): fluorescent microbead binding (VideoScan)
The target in one data set is Thrombin (UniProt P00734;P00734 328-363;364-622).
The target of a further data set is PfLDH (UniProt Q76NM3 1-316). The following applies: protein: recombinant; chain copies: 4.
The next data set deals with Interferon gamma (IFNγ) (UniProt P01579 24-161). The following applies: protein: commercial; chain copies: 2.
Interferon gamma (IFNγ), sequence (P01579 24-161): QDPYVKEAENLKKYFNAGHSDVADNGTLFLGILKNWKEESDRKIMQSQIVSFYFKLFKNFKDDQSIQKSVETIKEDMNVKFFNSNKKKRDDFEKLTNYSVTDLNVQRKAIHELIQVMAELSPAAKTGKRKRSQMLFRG

Turning to CTGGGCGGTAGAACCATAGTGACCCAGCCGTCTAC (structured_DNA) [PfLDH-apta], the results for the binding signal in the data set with Thrombin, with PfLDH and with Interferon gamma (IFNγ) were approximately 8 fold signal increase, ~2 fold signal vs no divalent cations and approximately 6 fold signal increase, respectively.
